# In PMC5389710:
# Biological target: Arabidopsis thaliana NAP1-related protein 1 (NRP1) (A. thaliana) (UniProt Q9CA59)
# Experiment: ITC
# Chain of Arabidopsis thaliana NAP1-related protein 1 (NRP1) (A. thaliana) (Q9CA59 whole entry): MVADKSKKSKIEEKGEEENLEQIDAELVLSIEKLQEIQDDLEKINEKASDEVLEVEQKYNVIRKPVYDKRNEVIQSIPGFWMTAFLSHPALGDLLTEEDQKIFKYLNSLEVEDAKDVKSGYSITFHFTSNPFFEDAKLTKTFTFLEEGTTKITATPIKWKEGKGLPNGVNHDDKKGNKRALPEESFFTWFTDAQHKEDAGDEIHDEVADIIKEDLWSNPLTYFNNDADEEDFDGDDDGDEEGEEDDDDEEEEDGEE
Substance,Kd [nM],dH [kcal/mol]
Arabidopsis thaliana cytochrome c (from UniProt Q9T0G2 1-112) (natural protein),5000,–
Chicken erythrocyte H2A–H2B histone dimer (from UniProt P02263 1-129; P0C1H3 1-126) (complex),100,–
Xenopus laevis core histone H4 (from UniProt P62799 1-103) (natural protein),–,-10.4
